# Experimental data: patent US20190085311
# Biological target: glucose dehydrogenase containing the LPETG motif
row,Protein,relative apparent “Km” for LPXTG
1,D160S/K196S + N107W + E106G (protein) QAKPQIPKDKSKVAGYIEIPDADIKEPVYPGPATPEQLNRGVSFAEGWESLDDQNISIAGHTFIDRPNYQFTNLKAAKKGSMVYFKVGNETRKYKMTSIRSVKPTDVGVLDEQKGKDKQLTLITCDDYNEKTGVWESRKIFVATEVK,107%
2,D160S/K196S + A61T (protein) QTKPQIPKDKSKVAGYIEIPDADIKEPVYPGPATPEQLNRGVSFAEENESLDDQNISIAGHTFIDRPNYQFTNLKAAKKGSMVYFKVGNETRKYKMTSIRSVKPTDVGVLDEQKGKDKQLTLITCDDYNEKTGVWESRKIFVATEVK,97%
3,D160S/K196S + N107W + G167E (protein) QAKPQIPKDKSKVAGYIEIPDADIKEPVYPGPATPEQLNRGVSFAEEWESLDDQNISIAGHTFIDRPNYQFTNLKAAKKGSMVYFKVGNETRKYKMTSIRSVKPTDVEVLDEQKGKDKQLTLITCDDYNEKTGVWESRKIFVATEVK,166%
4,D160S/K196S + N107W + F144L (protein) QAKPQIPKDKSKVAGYIEIPDADIKEPVYPGPATPEQLNRGVSFAEEWESLDDQNISIAGHTFIDRPNYQFTNLKAAKKGSMVYLKVGNETRKYKMTSIRSVKPTDVGVLDEQKGKDKQLTLITCDDYNEKTGVWESRKIFVATEVK,134%
5,D160S/K196S + F144L + G167E (protein) QAKPQIPKDKSKVAGYIEIPDADIKEPVYPGPATPEQLNRGVSFAEENESLDDQNISIAGHTFIDRPNYQFTNLKAAKKGSMVYLKVGNETRKYKMTSIRSVKPTDVEVLDEQKGKDKQLTLITCDDYNEKTGVWESRKIFVATEVK,166%
6,D160S/K196S + N107W + F144L + G167E (protein) QAKPQIPKDKSKVAGYIEIPDADIKEPVYPGPATPEQLNRGVSFAEEWESLDDQNISIAGHTFIDRPNYQFTNLKAAKKGSMVYLKVGNETRKYKMTSIRSVKPTDVEVLDEQKGKDKQLTLITCDDYNEKTGVWESRKIFVATEVK,197%
7,D160S/K196S + A61E (protein) QEKPQIPKDKSKVAGYIEIPDADIKEPVYPGPATPEQLNRGVSFAEENESLDDQNISIAGHTFIDRPNYQFTNLKAAKKGSMVYFKVGNETRKYKMTSIRSVKPTDVGVLDEQKGKDKQLTLITCDDYNEKTGVWESRKIFVATEVK,100%
8,D160S/K196S + N107W (protein) QAKPQIPKDKSKVAGYIEIPDADIKEPVYPGPATPEQLNRGVSFAEEWESLDDQNISIAGHTFIDRPNYQFTNLKAAKKGSMVYFKVGNETRKYKMTSIRSVKPTDVGVLDEQKGKDKQLTLITCDDYNEKTGVWESRKIFVATEVK,121%
9,D160S/K196S + E106G (protein) QAKPQIPKDKSKVAGYIEIPDADIKEPVYPGPATPEQLNRGVSFAEGNESLDDQNISIAGHTFIDRPNYQFTNLKAAKKGSMVYFKVGNETRKYKMTSIRSVKPTDVGVLDEQKGKDKQLTLITCDDYNEKTGVWESRKIFVATEVK,121%
10,D160S/K196S + G167E (protein) QAKPQIPKDKSKVAGYIEIPDADIKEPVYPGPATPEQLNRGVSFAEENESLDDQNISIAGHTFIDRPNYQFTNLKAAKKGSMVYFKVGNETRKYKMTSIRSVKPTDVEVLDEQKGKDKQLTLITCDDYNEKTGVWESRKIFVATEVK,131%
11,D160S/K196S + F144L (protein) QAKPQIPKDKSKVAGYIEIPDADIKEPVYPGPATPEQLNRGVSFAEENESLDDQNISIAGHTFIDRPNYQFTNLKAAKKGSMVYLKVGNETRKYKMTSIRSVKPTDVGVLDEQKGKDKQLTLITCDDYNEKTGVWESRKIFVATEVK,100%
12,"Reference 2: P94R/D160N/D165A/G167E/K190E/K196T from U.S. Pat. No. 9,267,127 (SEQ ID NO: 52) (protein) MQAKPQIPKDKSKVAGYIEIPDADIKEPVYPGPATREQLNRGVSFAEENESLDDQNISIAGHTFIDRPNYQFTNLKAAKKGSMVYFKVGNETRKYKMTSIRNVKPTAVEVLDEQKGKDKQLTLITCDDYNEETGVWEKRKIFVATEVK",lower
